biological target: Wnt proteins; experiment: cell-based or functional assay

Row | percent of injection sites with correct anterior turns of post-crossing commissural axons (open-book explant, collagen gel) [%] | Substance
1 | 25 | Mouse sFRP3 (secreted Frizzled-related protein 3), Myc epitope tagged (from UniProt P97401 33-323)
2 | 11 | Mouse sFRP1 (secreted Frizzled-related protein 1) (from UniProt Q8C4U3 32-314)
3 | 25 | Mouse sFRP2 (secreted Frizzled-related protein 2), Myc epitope tagged (from UniProt P97299 25-295)

— US20050049195A1
